Assay results as given in the supplement of paper PMC7877785.
± gives the uncertainty stated by the source.

Assay: self-splicing fitness, log relative to wild type (ln ratio); higher = more splicing; Tetrahymena group I intron in knt gene, E. coli kanamycin selection, DiMSum; sequences stand for … in CUCUCU…GGAGGGAAAAGUUAUCAGGCAUGCACCUGGUAGCUAGUCUUUAAACCAAUAGAUUGCAUCGGUUUAAAAGGCAAGACCGUCAAAUUGCGGGAAAGGGGUCAACAGCCGUUCAGUACCAAGUCUCAGGGGAAACUUUGAGAUGGCCUUGCAAAGGGUAUGGUAAUAAGCUGACGGACAUGGUCCUAACCACGCAGCCAAGUCCUAAGUCAACAGAUCUUCUGUUGAUAUGGAUGCAGUUCACAGACUAAAUGUCGGUCGGGGAAGAUGUAUUCUUCUCAUAAGAUAUAGUCGGACCUCUCCUUAAUGGGAGCUAGCGGAUGAAGUGAUGCAACACUGGAGCCGCUGGGAACUAAUUUGUAUGCGAAAGUAUAUUGAUUAGUUUUGGAGUACUCGUGGUCG
Method in brief: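 The eight P1ex-region nucleotides of an intron in the knt kanamycin-resistance gene on pET-22b(+) were all randomised and the library put into E. coli BL21(DE3). Six replicate transformations were grown overnight at 37°C or 30°C on LB agar with or without 25 μg/mL kanamycin, together with 100 μg/mL carbenicillin, 50 μM IPTG and 0.2% rhamnose. Colonies were pooled and amplicon-sequenced on an Illumina HiSeq 2500. Fitness from DiMSum is the error-weighted combination of wild-type-normalised replicate fold changes, kanamycin over none.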

Sequence	self-splicing fitness (ln) (30 °C)	self-splicing fitness (ln) (37 °C)
CGUGAGCAAUAUUACGGCGA	-2.31 ± 0.36	-0.845 ± 0.34
CGUGAGCAAUAUUACGGCGC	-3.69 ± 0.34	-2.43 ± 0.37
CGUGAGCAAUAUUACGGUGA	-2.84 ± 0.31	-2.04 ± 0.38
CGUGAGCAAUAUUACGUAUA	-2.71 ± 0.18	-1.55 ± 0.18
CGUGAGCAAUAUUACGUCAU	-2.46 ± 0.21	-2.81 ± 0.24
CGUGAGCAAUAUUACGUCCG	-1.95 ± 0.16	-0.866 ± 0.22
CGUGAGCAAUAUUACGUGCA	-1.36 ± 0.13	0.0971 ± 0.14
CGUGAGCAAUAUUACGUUGA	-2.89 ± 0.3	-2.94 ± 0.43
CGUGAGCAAUAUUACGUUGC	-2.69 ± 0.21	-2.51 ± 0.32
CGUGAGCAAUAUUACGUUGG	-2.62 ± 0.12	-1.45 ± 0.11
CGUUAGCAAUAUUACGAAAA	-2.76 ± 0.49	-1.83 ± 0.3
CGUUAGCAAUAUUACGAACC	-0.385 ± 0.069	-0.0684 ± 0.073
CGUUAGCAAUAUUACGACCU	-0.403 ± 0.2	-0.596 ± 0.18
CGUUAGCAAUAUUACGAGCA	-0.917 ± 0.09	-0.809 ± 0.089
CGUUAGCAAUAUUACGAGCC	-2.52 ± 0.21	0.132 ± 0.17
CGUUAGCAAUAUUACGAUCA	-0.373 ± 0.16	0.245 ± 0.17
CGUUAGCAAUAUUACGAUGA	-1.79 ± 0.13	-0.842 ± 0.13
CGUUAGCAAUAUUACGAUUG	-0.332 ± 0.073	-0.316 ± 0.084
CGUUAGCAAUAUUACGCAGC	-2.48 ± 0.25	-3.07 ± 0.43
CGUUAGCAAUAUUACGCCGC	-3.14 ± 0.3	-2.73 ± 0.43
CGUUAGCAAUAUUACGCGAC	-3.76 ± 0.26	-1.84 ± 0.17
CGUUAGCAAUAUUACGCGGC	-2.07 ± 0.23	-2.19 ± 0.26
CGUUAGCAAUAUUACGCGGG	-3.91 ± 0.24	-3.13 ± 0.29
CGUUAGCAAUAUUACGCGGU	-3.07 ± 0.19	-3.35 ± 0.29
CGUUAGCAAUAUUACGCUAG	-2.66 ± 0.17	-1.51 ± 0.25

Sequence	self-splicing fitness (ln) (30 °C)	self-splicing fitness (ln) (37 °C)
CGUUAGCAAUAUUACGCUCU	-1.56 ± 0.14	-1.07 ± 0.17
CGUUAGCAAUAUUACGGAGU	-4.73 ± 0.31	-3.23 ± 0.26
CGUUAGCAAUAUUACGGCCA	-1.01 ± 0.29	-2.55 ± 0.46
CGUUAGCAAUAUUACGGGAG	-3.32 ± 0.2	-2.39 ± 0.17
CGUUAGCAAUAUUACGGUGC	-3.11 ± 0.23	-2.59 ± 0.5
CGUUAGCAAUAUUACGGUUA	-1.55 ± 0.21	-1.66 ± 0.17
CGUUAGCAAUAUUACGGUUC	-3.01 ± 0.38	-1.83 ± 0.31
CGUUAGCAAUAUUACGUCGG	-0.297 ± 0.1	0.0154 ± 0.14
CGUUAGCAAUAUUACGUGAA	-2.48 ± 0.15	-1.45 ± 0.15
CGUUAGCAAUAUUACGUUUA	-2.86 ± 0.23	-2.63 ± 0.18
CUAAAGCAAUAUUACGACUC	-4.65 ± 0.46	-2.38 ± 0.31
CUAAAGCAAUAUUACGAGUA	-3.16 ± 0.3	-2.73 ± 0.36
CUAAAGCAAUAUUACGAUAU	-3.84 ± 0.19	-3.13 ± 0.18
CUAAAGCAAUAUUACGCCUC	-3.62 ± 0.21	-1.85 ± 0.27
CUAAAGCAAUAUUACGCGUG	-1.09 ± 0.075	0.243 ± 0.11
CUAAAGCAAUAUUACGCUGC	-3.7 ± 0.47	-2.53 ± 0.42
CUAAAGCAAUAUUACGGAAU	-3.72 ± 0.24	-2.14 ± 0.22
CUAAAGCAAUAUUACGGCAU	-3.69 ± 0.27	-3.09 ± 0.4
CUAAAGCAAUAUUACGGCGC	-2.54 ± 0.21	-2.38 ± 0.45
CUAAAGCAAUAUUACGGCGG	-0.171 ± 0.064	0.0633 ± 0.081
CUAAAGCAAUAUUACGGGCA	-3.06 ± 0.14	-2.54 ± 0.21
CUAAAGCAAUAUUACGGGUA	-4.44 ± 0.32	-2.3 ± 0.3
CUAAAGCAAUAUUACGGUGG	-0.649 ± 0.064	-0.0443 ± 0.08
CUAAAGCAAUAUUACGUCAA	-4.32 ± 0.32	-2.08 ± 0.28
CUAAAGCAAUAUUACGUCCU	-3.29 ± 0.24	-1.92 ± 0.26

Sequence	self-splicing fitness (ln) (30 °C)	self-splicing fitness (ln) (37 °C)
CUAAAGCAAUAUUACGUCGC	-3.42 ± 0.15	-2.63 ± 0.23
CUAAAGCAAUAUUACGUCUU	-3.95 ± 0.22	-3.24 ± 0.3
CUAAAGCAAUAUUACGUGUC	-3.88 ± 0.2	-2.85 ± 0.25
CUAAAGCAAUAUUACGUUUA	-4.12 ± 0.16	-2.81 ± 0.17
CUACAGCAAUAUUACGACCU	-4.15 ± 0.46	-0.863 ± 0.17
CUACAGCAAUAUUACGACGG	-0.839 ± 0.063	-0.265 ± 0.095
CUACAGCAAUAUUACGAGAC	-4.15 ± 0.2	-2.59 ± 0.16
CUACAGCAAUAUUACGAUCU	-4.26 ± 0.37	-1.9 ± 0.45
CUACAGCAAUAUUACGCAAU	-3.8 ± 0.4	-2.86 ± 0.4
CUACAGCAAUAUUACGCCAC	-3.68 ± 0.33	–
CUACAGCAAUAUUACGCCCG	0.0629 ± 0.15	-0.112 ± 0.14
CUACAGCAAUAUUACGCCGU	-3.2 ± 0.19	-2.06 ± 0.29
CUACAGCAAUAUUACGCGAC	-1.03 ± 0.072	-0.76 ± 0.11
CUACAGCAAUAUUACGCGAU	-2.35 ± 0.095	-0.252 ± 0.092
CUACAGCAAUAUUACGCGGU	-3.49 ± 0.3	-2.17 ± 0.28
CUACAGCAAUAUUACGCGUU	-4.43 ± 0.23	-2.37 ± 0.21
CUACAGCAAUAUUACGCUAA	-2.93 ± 0.28	-2.29 ± 0.29
CUACAGCAAUAUUACGCUGA	-3.41 ± 0.28	–
CUACAGCAAUAUUACGCUGC	-2.88 ± 0.22	-1.77 ± 0.35
CUACAGCAAUAUUACGCUUA	-3.44 ± 0.19	-2.65 ± 0.19
CUACAGCAAUAUUACGGAUC	-4.11 ± 0.3	-2.51 ± 0.26
CUACAGCAAUAUUACGGGAG	-2.62 ± 0.11	-1.96 ± 0.12
CUACAGCAAUAUUACGGGUU	-3.18 ± 0.11	-2.94 ± 0.12
CUACAGCAAUAUUACGGUGG	-4.48 ± 0.21	-2.71 ± 0.15
CUACAGCAAUAUUACGUCCA	-3.07 ± 0.25	-1.3 ± 0.24

Sequence	self-splicing fitness (ln) (30 °C)	self-splicing fitness (ln) (37 °C)
CUACAGCAAUAUUACGUGCU	–	-2 ± 0.13
CUACAGCAAUAUUACGUGUC	-3.95 ± 0.14	-2.73 ± 0.15
CUAGAGCAAUAUUACGACGA	-3.35 ± 0.13	-1.36 ± 0.13
CUAGAGCAAUAUUACGACGU	-3.28 ± 0.3	-0.837 ± 0.26
CUAGAGCAAUAUUACGACUU	-4.26 ± 0.27	-2.51 ± 0.25
CUAGAGCAAUAUUACGAGAA	-2.62 ± 0.35	-2.5 ± 0.45
CUAGAGCAAUAUUACGAGAG	-0.641 ± 0.071	-0.393 ± 0.099
CUAGAGCAAUAUUACGAUGU	-3.45 ± 0.3	-2.2 ± 0.31
CUAGAGCAAUAUUACGCACC	-2.44 ± 0.41	–
CUAGAGCAAUAUUACGCAUA	-2.97 ± 0.27	-2.93 ± 0.4
CUAGAGCAAUAUUACGCCUG	-0.0979 ± 0.087	0.825 ± 0.12
CUAGAGCAAUAUUACGCUGC	-3.8 ± 0.33	-2.33 ± 0.33
CUAGAGCAAUAUUACGCUUC	-2.21 ± 0.42	-1.97 ± 0.3
CUAGAGCAAUAUUACGGACG	0.0877 ± 0.07	0.427 ± 0.097
CUAGAGCAAUAUUACGGCUU	-2.92 ± 0.24	-1.94 ± 0.26
CUAGAGCAAUAUUACGGGCC	-2.86 ± 0.34	-1.76 ± 0.34
CUAGAGCAAUAUUACGGUAU	–	-1.76 ± 0.49
CUAGAGCAAUAUUACGUAGA	-3.37 ± 0.16	-1.5 ± 0.15
CUAGAGCAAUAUUACGUCUU	-3.52 ± 0.18	-2.27 ± 0.22
CUAUAGCAAUAUUACGACCG	0.239 ± 0.18	0.785 ± 0.27
CUAUAGCAAUAUUACGAGCU	-1.79 ± 0.48	–
CUAUAGCAAUAUUACGAUUG	-0.58 ± 0.097	0.313 ± 0.13
